Reference: the nanobody polyreactivity screen of Harvey et al. (2022)

Test: yeast display, Sf9 membrane polyspecificity reagent, FACS + sequencing; frameworks hold sequencing errors
Outline: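 After 36–48 hours of galactose induction, yeast (Saccharomyces cerevisiae BJ5465) displaying a synthetic nanobody library were stained at 4 °C for 1 hour with 10% biotinylated, detergent-solubilized Sf9 membrane reagent. Streptavidin microbeads enriched the stained cells before FACS sorting into low and high (top ~1%) gates on anti-HA and streptavidin fluorescence. Each clone's polyreactivity label reflects its gate of origin.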

| Sequence | polyreactivity (PSR sort gate) |
| --- | --- |
| QVQLVESGGGLVQAGGSLRLSCAASGRTFSGNAMGWYRQAPGKERELVASISTSTDGTYYADSVKGRFTISRDNAKNTVYLQMNSLKAEDTAVYYCTTTTYHWYYYRWEIFDYRGQGTQVTVSS | low polyreactivity |
| QVQLVESGGGLVQAGGSLRLSCAASGRTFSGNTMGWYRQAPGKERELVAVINSGTRTYYADSVKGRFTISRDNAKNTVYLHMNSLKPEDTAVYYCATRSKSPSTKYGYWGQGTQVTVSS | high polyreactivity |
| QVQLVESGGGLVQAGGSLRLSCAASGRTFSGYAMGWYRQAPGKERELVAAIRWSGGSTYYADSVKGRFTISRDNAKNTVYLQMNSLKPEDTAVYYCATRDYYYRYGYWGQGTQVTVSS | high polyreactivity |
| QVQLVESGGGLVQAGGSLRLSCAASGRTFSGYAMGWYRQAPGKERELVAGITWNGGRTYYADSVKGRFTISRDNAKNTVSLQMNSLKPEDTAVYYCNKLGAVYPKYGYWGQGTQVTVSS | high polyreactivity |
| QVQLVESGGGLVQAGGSLRLSCAASGRTFSGYAMGWYRQAPGKERELVASITYSGGSTYYADSVKGRFTISRDNAKNTVYLQMNSLKPEDTAVYYCNARSSGKGRSNAYYKGHGYWGQGTQVTVSS | high polyreactivity |
| QVQLVESGGGLVQAGGSLRLSCAASGRTFSGYAMVWYRQAPGKERELVAAISSGGGSTYYADSVKGRFTISRDNAKNTVYLQMNSLKPEDTAVYYCAADGYPGDYDYWGQGTQVTVSS | low polyreactivity |
| QVQLVESGGGLVQAGGSLRLSCAASGRTFSHYAMGSYRQAPGKEREFVADITRSGGSTYYADSVKGRFTISRDNAKNTVYLQMNSLKPEDTAVYYCNAESYFEIYDYWGQGTQVTVSS | high polyreactivity |
| QVQLVESGGGLVQAGGSLRLSCAASGRTFSHYAMGWYRQAPGKERELVAAINTRTGTTYYADSVKGRFTISRDNAKNTVYLQMNSLKPEDTAVYYCNAVPYYSYQGWILVGDYDYWGQGTQVTVSS | low polyreactivity |
| QVQLVESGGGLVQAGGSLRLSCAASGRTFSKYAMAWYRQAPGKERELVAAISSSGGSTYYADSVKGRFTISRDNAKNTVYLQMNSLKPEDTAVYYCATRVYPRYWFTTRYRYDYWGQGTQVTVSS | low polyreactivity |
| QVQLVESGGGLVQAGGSLRLSCAASGRTFSKYAMGWYRQAPGKERELVAAISSGGSTNYADSVKGRFTISRDNAKNTVYLQMISLKPEDTAVYYFARTTNWRHSYAYYYLHGHDYWGQGTQVTVSS | high polyreactivity |
| QVQLVESGGGLVQAGGSLRLSCAASGRTFSKYAMGWYRQAPGKERELVAAITRSGSSTYYADSVKGRFTISRDNAKNTVYLQMNCLKPEDTAVYYCAADRYLRSSGSAPDYGYWGQGTQVTVSS | low polyreactivity |
| QVQLVESGGGLVQAGGSLRLSCAASGRTFSKYAMGWYRQAPGKERELVAAITSGGGTYYADSVKGRFTISRDNAKNTVYLQMNSLKPEDTAVYYCAVSVTTVSTYDYWGQGTQVTVSS | low polyreactivity |
| QVQLVESGGGLVQAGGSLRLSCAASGRTFSLNAMGWYRQAPGKERELVAAINRGGTTYYADSVKGRFTISRDNAKNTVYLQMNSLKPEDTAVYDCAARVWGRWAGSYAWWHGYNSWGQGTQVSVSS | high polyreactivity |
| QVQLVESGGGLVQAGGSLRLSCAASGRTFSLYAMGRYRQAPGKERELVAGISSSGGSTYYADSVKGRFTISRDNAKNTVYLQMNSLKQEDTAFYYCAAYRNTVIRNSDYWGQGTQVTVSS | high polyreactivity |
| QVQLVESGGGLVQAGGSLRLSCAASGRTFSLYAMGWSRPAPGKERELVAAITRRGGSTYYADSVKGRFTMSRDNAKNTVYLQMNSLKPEDTAVYYCAADSGYPWELDYWGQGTEVTVSS | low polyreactivity |
| QVQLVESGGGLVQAGGSLRLSCAASGRTFSPNTMGWYRQAPGKEREFVAAITASGDSTYYADSVKGRFTISRDNAKNTVYLQMNSLKPEDTAVYYCDTDSNWYWGFNYWGQGTKVTVSS | low polyreactivity |

| Sequence | polyreactivity (PSR sort gate) |
| --- | --- |
| QVQLVESGGGLVQAGGSLRLSCAASGRTFSPYMGWYRQAPGKEGELVAAISKSGGRTYYADSVKGRFTISRDNAKNTVYLQMNSLKPEDTAVYYCATTGNNYYYALYGYWGQGTQVTVSS | low polyreactivity |
| QVQLVESGGGLVQAGGSLRLSCAASGRTFSQYDMGWYRQAPGKERELVAAISWSGGRTYYADSVKGRFTISRDNAKNTVYLQMNSLKPEDTAVYYCAAAYSWIRSPYNDPNRGYDYWGQGTQVTVSS | low polyreactivity |
| QVQLVESGGGLVQAGGSLRLSCAASGRTFSRKAMRWYRQAPGKERELVASISRSGGSTYYADSVKGRFTISRDIAKNTVYLQMNSLKPEDTAVYYCAASYWHRRYDYWGQGTQVTVSS | high polyreactivity |
| QVQLVESGGGLVQAGGSLRLSCAASGRTFSRNAMGWYRQAPGKERELVAAITSRGGTTYYADSVKGRFTISRDNAKNTVYLQMNSLKPEDTAVYYCNAAPRARSKVSYDYWGQGTQVTVSS | high polyreactivity |
| QVQLVESGGGLVQAGGSLRLSCAASGRTFSRNAMGWYRQAPGKERELVAGISWRGTSTYYADSVKGRFTISRDNAKNTVYLQMNSLKPEYTAVYYCNRVYEYWSEYDYWGQGTQVTVSS | high polyreactivity |
| QVQLVESGGGLVQAGGSLRLSCAASGRTFSRNAMGWYRQAPGKERELVATITSDGSTNYADSVKGRFTISRDNAKNTVYLQMNSLKPEDTSVYYCAADEASSRGYYDYDYWGQGTQVTVSS | low polyreactivity |
| QVQLVESGGGLVQAGGSLRLSCAASGRTFSRYAMGWYRQAPGKERELVAAISYSGGRTYYADSVKGRFTISRDNAKNTVYLQMNSLKPEDTAVYYCAASWPGHTVDYDYWGQGTQVTVSS | high polyreactivity |
| QVQLVESGGGLVQAGGSLRLSCAASGRTFSRYAMGWYRQAPWKERELVAAITSRGGNTYYADSVKGRFTISRDNAKNTVYLQMNSLIPEDTAVYYCNKVVRRGGGKNPDYDYWGQGTQVTVSS | high polyreactivity |
| QVQLVESGGGLVQAGGSLRLSCAASGRTFSSNAMGWYRPAPGKEREMVAAITRRSGSTYYADSVKGRFTISRDNAKNTVYLQMNSLKPEDTAVYYCNADIDSYREMDYWGQGTQVTVSS | low polyreactivity |
| QVQLVESGGGLVQAGGSLRLSCAASGRTFSSNTMGWYRQAPGKERELVAAISSTDSTYYADSVKGRFTISRDNAKNTVYLQMNSLKPEDTAVYYCNKVVGFRSYFGGYGYWGQGTQVTVSS | high polyreactivity |
| QVQLVESGGGLVQAGGSLRLSCAASGRTFSSYAMGWYRQAPGKERELVAAISSGGSTYYADSVKGRFTISRDNAKNTVYLQMNSLKPEDTAVYYCNRRFYYKIGRGIRYFWGQVTQVTVSS | high polyreactivity |
| QVQLVESGGGLVQAGGSLRLSCAASGRTFSSYVMGWYRQAPGKERELVASISRRGGSTYYADSVKGRFTISRDNAKNTVYLQMNSLKPEDTAVYYCNADLRGYGRGTDQYTFDYWGQGTQVTVSS | high polyreactivity |
| QVQLVESGGGLVQAGGSLRLSCAASGRTFSTYAMGWYRQAPGKERELVAAITTSGGNTYYADSVKGRFTISRDNAKNTVYLQMNSLKPEDTAVYYCNADYFPTYDYWGQGTQVTVSS | low polyreactivity |
| QVQLVESGGGLVQAGGSLRLSCAASGRTFSVNAMGWYRQAPGKEREFVAAISKSGGSTYYADSVKGRFTISRDNAKNTVYLQMNSLKPEDTAVYYCAADSNSVYPFDYWGQGTQVTVSS | high polyreactivity |
| QVQLVESGGGLVQAGGSLRLSCAASGRTFSVNAMGWYRQAPGKERELVATISYRGGSTYYADSVKGRFTISRDNAKNTVYLQMNSLKPEDTAVYYCAAGWRYWGRIYRDYDSWGQGTQVTVSS | high polyreactivity |
